These results are taken from the nanobody polyreactivity screen of Harvey et al. (2022).

The data set is described as follows: yeast display, Sf9 membrane polyspecificity reagent, FACS + sequencing; frameworks hold sequencing errors. In a few lines: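 A nanobody's polyreactivity label depends on the gate it was sorted from. Yeast display cells were stained with 10% biotinylated, detergent-solubilized Sf9 membrane reagent for 1 hour at 4 °C, enriched on streptavidin microbeads and sorted by FACS. The low and high (top ~1%) gates were set on anti-HA fluorescence for expression and streptavidin fluorescence for reagent binding.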
As to “QVQLVESGGGLVQAGGSLRLSCAASGSIFFRYAMGWYRQATGKERELVARISWGGGRTYYADSVKGRFTISRDNAKNTVYLQMNSLKPEDTAVYYCNRAYWVNPGGFEYWGQGTQVTVSS”, the “polyreactivity (PSR sort gate)” value is on record as “high polyreactivity”.

Turning to “QVQLVESGGGLVQAGGSLRLSCAASGSIFFSNAMGWYRQAPGKERELVAAITSTGGSTYYADSVKGRFTISRDTAKNTVYLQLNSLKPEDTAVYYCAAASRRGYYYWGQGTQVTVSS”, the “polyreactivity (PSR sort gate)” value was “high polyreactivity”.

Take “QVQLVESGGGLVQAGGSLRLSCAASGSIFFSNAMGWYRQAPGKERELVASISRDVSTNYADSVKGRFTISRDNAKNTVYLQMTSLKPEDTAVYYCAKRYYRYYYITYNGSHYGYWGQGTQVTVSS”: the “polyreactivity (PSR sort gate)” value is given as “low polyreactivity”.

Regarding “QVQLVESGGGLVQAGGSLRLSCAASGSIFFTYAMGWYRQAPGKERELVAAISGVVSTYYADSVKGRFTISRDNAKNTVYLQMNSLKPEDTAVYYCAADYSWTGFGWEYDYWGQGTQVNVSS”, the “polyreactivity (PSR sort gate)” value is listed as “low polyreactivity”.

Consider “QVQLVESGGGLVQAGGSLRLSCAASGSIFFVNAMAWYRQAPGKERESVAGITGGGSTYYADSVKGRFTISRDNAKNTVYLQMNSLKPEDTAVYYCNKKAYRKTGMDYWGQGTQVTVSS”, for which the “polyreactivity (PSR sort gate)” value was “low polyreactivity”.

Take “QVQLVESGGGLVQAGGSLRLSCAASGSIFFVYAMGWYRQAPGKERELVAGIRWSGGRTSYADSVKGRFTISRDNAKNTVYLQMNSLNPEDTAVYYCAADPRSYFTSEYWGQGTQVTVSS”: the “polyreactivity (PSR sort gate)” value is recorded as “high polyreactivity”.

For the sequence “QVQLVESGGGLVQAGGSLRLSCAASGSIFFVYAMGWYTQAPGKERELVAGIRWSGGRTSYADSVKGRFTISRDNAKNTVYLQMNSLNQEDTAVYYCAAGCGVLPQQHYYYRYDYWGQGTQVTVSS”, the “polyreactivity (PSR sort gate)” value is on record as “high polyreactivity”.

In the case of “QVQLVESGGGLVQAGGSLRLSCAASGSIFFWNDMGWYRQAPGKERELVAAISWSGGSTSYADSVKGRFTISRDNAKNTVYLQMNSLKPEDTAVYYCAAEYTYGSPYDYWGQGTQVTVSS”, the “polyreactivity (PSR sort gate)” value is listed as “low polyreactivity”.

For “QVQLVESGGGLVQAGGSLRLSCAASGSIFFYAMGWYRQAPGKERELVADITYTGGSKYADSVKGRFSISRDNAKNTVYLQMNSLKTEDTAVYYCAKLDGGLFDYWGQGTQVTVSS”, the “polyreactivity (PSR sort gate)” value is “low polyreactivity”.

As for “QVQLVESGGGLVQAGGSLRLSCAASGSIFFYNTMGWYRQAPGKERELVAAISASGGRTYYADSVKGRFTISRDYSKNTVYLQMNSLKPEDTAVYYCAVRVPYRGYTRYDYWGHGTQVTVSS”, the “polyreactivity (PSR sort gate)” value is “high polyreactivity”.

Consider “QVQLVESGGGLVQAGGSLRLSCAASGSIFFYYAMGWYRQAPGKERELVATITSGGSTSYADSVKGRFTISRDNAKNTVFLQMNSLKPEDTAVYYCAARKVTKSTYNYWGQGTQVTVSS”, for which the “polyreactivity (PSR sort gate)” value is recorded as “low polyreactivity”.

For “QVQLVESGGGLVQAGGSLRLSCAASGSIFFYYAMGWYSQAPGTERELVAAIRNGGSTKYADSVKGRFTISRDNAKNTVYLQMNSLKPEDTAVYYCAAGYPVTRRTIRFDYWGQGTQVTVSS”, the “polyreactivity (PSR sort gate)” value was “high polyreactivity”.

As to “QVQLVESGGGLVQAGGSLRLSCAASGSIFGAYAMGWSRQAPGKERELVAAISGSGTSTYYADSVKGRFTISRDNAKNTVYLQMNSLKQEDTAVYYCAADGTYFYIYLGDRFDYWGQGTQVTVSS”, the “polyreactivity (PSR sort gate)” value is on record as “low polyreactivity”.

For “QVQLVESGGGLVQAGGSLRLSCAASGSIFGAYAMGWYRQAPGKERELVAAISRSGSTTYYADSVKGRFTISRDNAKNTVYLQMNSLKPEDTAVYYCAARWTRFLSSSDYYYWGQGTQVTVSS”, the “polyreactivity (PSR sort gate)” value is reported as “high polyreactivity”.

Consider “QVQLVESGGGLVQAGGSLRLSCAASGSIFGAYAMGWYRQAPGKERELVATITLRDGSTYYADSVKGRFTISRDNAKNTVYLQMNSLKPEDTAVSYCATYYSAINYGWSKTILYDYWGQGTQVTVSS”, for which the “polyreactivity (PSR sort gate)” value is listed as “low polyreactivity”.

In the case of “QVQLVESGGGLVQAGGSLRLSCAASGSIFGDNAMGWSRQAPGKERDLVAAISSGGPTYADSVKGRFTISRDYAKNTVYLLMNSLKPEDTAVYYCNATDGMTPYDLTDIEFDYWGQGTHVTVSS”, the “polyreactivity (PSR sort gate)” value is listed as “low polyreactivity”.

For “QVQLVESGGGLVQAGGSLRLSCAASGSIFGDNAMGWYRQAPGKERELVAAISSSGGSTYADSVKGRFTISRDNAKNTVYLQMNSLKPEDTAVYYCATQIAWGTYVINPQMDYWGQGTQVTVSS”, the “polyreactivity (PSR sort gate)” value is listed as “low polyreactivity”.

Turning to “QVQLVESGGGLVQAGGSLRLSCAASGSIFGDNAMGWYRQAPGKERELVAAISTRGGRTYYADSVKGRFTISRDNAKNTVYLQMNSLKPEDSAVYYCATSGGRPYKYEYWGQGTQVTVSS”, the “polyreactivity (PSR sort gate)” value was “high polyreactivity”.

As to “QVQLVESGGGLVQAGGSLRLSCAASGSIFGDNAMGWYRQAPGKERELVATISSSDASTYYADSVKGRFTISRDNAKKTVYLQMNSLKPEDTAVYYCAAARSGGYDYWGQGTQVTVSS”, the “polyreactivity (PSR sort gate)” value is recorded as “low polyreactivity”.

Turning to “QVQLVESGGGLVQAGGSLRLSCAASGSIFGDYDMGWYRQAPGKERELVAAINRGGSTYYADSVKGRFTMSRDNAKNTVYLQMISLKPEDTAVYYCAAGYPSWYYGYAYDSWGQGTQVTVSS”, the “polyreactivity (PSR sort gate)” value is “low polyreactivity”.

“QVQLVESGGGLVQAGGSLRLSCAASGSIFGEYAMGWYRQAPGKERELVADITTGGNTNYADSVKGRFTISRDNAKNTVYLQMNSLKPEDSAVYYCYAFGNTYGYWWFGYWGQGTQVTVSS”: the “polyreactivity (PSR sort gate)” value is reported as “low polyreactivity”.

In the case of “QVQLVESGGGLVQAGGSLRLSCAASGSIFGFNAMGWYRQAPGKERELVAAINNGGSTNYADSVKGRFTISRDNAKNTVYLQMNSLKPEDTAVYYCAVGTLTYEGFRTYYYWGQGTQVTVSS”, the “polyreactivity (PSR sort gate)” value is recorded as “high polyreactivity”.

In the case of “QVQLVESGGGLVQAGGSLRLSCAASGSIFGFYAMGWYRQAPGKERELVAAITRSGDSTYADSVKGRFTISRDNAKNTVYLQMNSLKPEDTAVYYCATYWQYRYDYWGQGTQVTVSS”, the “polyreactivity (PSR sort gate)” value is “low polyreactivity”.

In the case of “QVQLVESGGGLVQAGGSLRLSCAASGSIFGFYAMGWYRQAPGKEREMVAAITRSGDSTYADSVKGRFTISRDNAKNTVYLQMNSLKPEDTAVYYCADDIDRSDVNSESYDYDYWGQGTQVTVSS”, the “polyreactivity (PSR sort gate)” value is on record as “low polyreactivity”.

Take “QVQLVESGGGLVQAGGSLRLSCAASGSIFGFYDMGWYRQAPGKERELVAAITTGGSTYYADSVKGRFTISRDNAKNTVYLQMNSLKPEDTAVYYCAKERWFPYERNDYWGQGTQVTVSA”: the “polyreactivity (PSR sort gate)” value is on record as “low polyreactivity”.

Consider “QVQLVESGGGLVQAGGSLRLSCAASGSIFGGNAMGWYRPAPGKERELVAGISTSGGSTYYADSVKGRFTISRDNAKNTVYLQMNSLKPEDTAVYYCARGLGTYPQYWWFGTPGLDYWGQGTQVTVSS”, for which the “polyreactivity (PSR sort gate)” value is given as “low polyreactivity”.

Take “QVQLVESGGGLVQAGGSLRLSCAASGSIFGGNAMGWYRQAAGKERELVAAITQSGGRTYYADSVKGRFTISRDNAKNTVYLQMNSLKPEDTAVYYCNRVYKSQTTDSFPLSYYYWGQGTQVTVSS”: the “polyreactivity (PSR sort gate)” value is “high polyreactivity”.

“QVQLVESGGGLVQAGGSLRLSCAASGSIFGGYAMGWYRQAPGKERELVARITDRGGSTDYADSVKGRFTISRDNAKNTVYLQMNSLTPEDTAVYYCAKRGDRYEKRPRDYWGQGTQVTVSS”: the “polyreactivity (PSR sort gate)” value is “low polyreactivity”.

Regarding “QVQLVESGGGLVQAGGSLRLSCAASGSIFGGYDMGWYRQAPGKESELVASISGSSSTYYADSVKGRFTISRDNAKNTVYFQMNSLKPEDTAVYYCAVDYHQAWPSADYWFEYDYWGQGTQVTVSS”, the “polyreactivity (PSR sort gate)” value is reported as “low polyreactivity”.

Turning to “QVQLVESGGGLVQAGGSLRLSCAASGSIFGGYGMGCYRQAPGKERALVAAITSGSSTYYADSVKGRFTISRDNAKKTVYLQMPSLTPEDTAGYYCNADYAYYRDVYSPYDSWGQGTQVTVSS”, the “polyreactivity (PSR sort gate)” value is “low polyreactivity”.

In the case of “QVQLVESGGGLVQAGGSLRLSCAASGSIFGGYGMGWYRQAPGKERELVAAITSGSSTYYADSVKGRFTISRDNAKNTVYLQMNSLKAEDTAVYYCAARPYTHSAYEGDYWGRGTQVTVSS”, the “polyreactivity (PSR sort gate)” value is reported as “low polyreactivity”.

For the sequence “QVQLVESGGGLVQAGGSLRLSCAASGSIFGGYGMGWYRQAPGKERELVAAITSGSSTYYADSVKGRFTISRDNAKNTVYLQMNSLKPEDTAVYNCAARPYPHSAYEGDYWGRGTQVTVSS”, the “polyreactivity (PSR sort gate)” value was “low polyreactivity”.

As for “QVQLVESGGGLVQAGGSLRLSCAASGSIFGGYTMGWYRQAPGKERKLVAAISRRGGNTYYADSVKGRFTISRDNAKNTVYLLMNSLKPEDTAVYYCAVRWPSARIPVKLDYWGQGTQVTVSS”, the “polyreactivity (PSR sort gate)” value is “high polyreactivity”.

As for “QVQLVESGGGLVQAGGSLRLSCAASGSIFGINAMGWYRQAPGKERELVAAISGSTSRTYYADSVKGRFTISRDNAKNTVYLQMNSLKPEDTAVYYCAVVGLRSVTRRSYYWGQGTQVTVSS”, the “polyreactivity (PSR sort gate)” value is listed as “high polyreactivity”.

For the sequence “QVQLVESGGGLVQAGGSLRLSCAASGSIFGISTMGWYRQAPGKERELVAAITSGDRTSYADSVKGRFTISRDNAKNTVYLQMNTLKPEDTAVYYCARDYYSYRYLRYDYWGQGTQVTVSS”, the “polyreactivity (PSR sort gate)” value is given as “low polyreactivity”.

“QVQLVESGGGLVQAGGSLRLSCAASGSIFGIYAMGWYRQAPGKERELVAAISWSGGSTYYADSVKGRFTISRDNAKNTVYLQMNSLKPEDTAVYYCNADVQLFGWWYGMDYWGQGTQVTVSS”: the “polyreactivity (PSR sort gate)” value is “high polyreactivity”.

On to “QVQLVESGGGLVQAGGSLRLSCAASGSIFGKNAMGWYRQAPGKERELVAAISFSGGSTYYADSVKGRFTISRDNAKNTVYLQMNSLKPEDTAVYYCAARKYSWYPAGGYDYWGQGTQVTVSS”, for which the “polyreactivity (PSR sort gate)” value was “high polyreactivity”.

For “QVQLVESGGGLVQAGGSLRLSCAASGSIFGLYAMGWYRPAPGKEREFVATISKSGVSTYYADSVKGRFTISRDNAKNTVYLQMNSLKPEDTALYYCNADISRDNDFDYWGQGTQVTVSS”, the “polyreactivity (PSR sort gate)” value is “low polyreactivity”.

For the sequence “QVQLVESGGGLVQAGGSLRLSCAASGSIFGLYAMGWYRQAAGKERELVAAISASGGSTYYADSVKGRFTISRDNAKNTVYLQMNSLKPEDTAVYYCAVKWRGGPQRGFNYWGQGTQVTVSS”, the “polyreactivity (PSR sort gate)” value is “high polyreactivity”.

Take “QVQLVESGGGLVQAGGSLRLSCAASGSIFGLYAMGWYRQAPGKERELVAAINQSGGSTSYADSVKGRFTISRDNAKNTVYLQMNSLKPEDTAVYYCAADSAFYTGSDYGWSDYDYWGQGTQVTVSS”: the “polyreactivity (PSR sort gate)” value is “low polyreactivity”.
